Consider 2 substances from US20120065254.

The target in data set [1] is T1, human C5a (L-form) (Homo sapiens) (UniProt P01031).
T1 sequence: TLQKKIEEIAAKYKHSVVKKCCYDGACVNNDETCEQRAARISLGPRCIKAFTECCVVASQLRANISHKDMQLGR
The data set is described as follows: SPR. To be noted: L-RNA [all (L-RNA)]; 37 C, Mg, Ca.

The target of data set [2] is human complement C5 in serum (Homo sapiens) (UniProt P01031+P01031). Nature of the data set: cell_activity. Conditions: 2'-F pyrimidines and 2'-OMe purines as printed, CGCU unmodified; complement-dependent sheep erythrocyte hemolysis.
Chain of human complement C5 in serum (Homo sapiens) (P01031 19-673 T389I, one chain of several): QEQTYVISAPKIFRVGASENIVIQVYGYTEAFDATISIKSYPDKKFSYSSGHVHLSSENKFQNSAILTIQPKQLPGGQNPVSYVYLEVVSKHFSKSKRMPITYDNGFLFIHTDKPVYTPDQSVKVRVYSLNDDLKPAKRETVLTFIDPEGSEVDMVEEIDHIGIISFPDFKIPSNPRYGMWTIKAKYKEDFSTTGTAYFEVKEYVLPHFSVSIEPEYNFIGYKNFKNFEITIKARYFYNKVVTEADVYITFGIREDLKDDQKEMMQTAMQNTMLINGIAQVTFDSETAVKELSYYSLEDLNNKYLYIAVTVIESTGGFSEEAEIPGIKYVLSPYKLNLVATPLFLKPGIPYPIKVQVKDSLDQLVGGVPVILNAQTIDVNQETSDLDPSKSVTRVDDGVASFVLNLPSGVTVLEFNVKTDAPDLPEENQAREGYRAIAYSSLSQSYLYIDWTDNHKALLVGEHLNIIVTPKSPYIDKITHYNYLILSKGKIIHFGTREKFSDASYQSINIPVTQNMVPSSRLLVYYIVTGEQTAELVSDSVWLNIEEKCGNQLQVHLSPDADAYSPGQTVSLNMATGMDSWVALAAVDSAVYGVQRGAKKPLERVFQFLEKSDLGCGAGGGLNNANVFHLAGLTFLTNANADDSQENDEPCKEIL

As a reminder, the Kd is a measure of binding affinity in units of concentration. In data set [1], “UGCUGGACAGGACCAAGGUAAGGGCGGACCGAAAAACCUAGCAGCA [182-A5-002]” showed a Kd of 0.3 nM.
One may read the IC50 as the concentration that gives 50% inhibition. C5C6 aptamer came in with an IC50 in data set [2] of 1000 nM.
